Measurements as given in patent publication US20090180995A1, “NOVEL ANTICOAGULANT POLYPEPTIDES AND COMPLEX” (National University of Singapore, priority 2005, published 2009).
Entries after “also recorded” stand apart in the source; their conditions may differ.

How the values were obtained:
[1] = biological target: Plasmin (Homo sapiens, UniProt P00747); assay: Serine protease specificity, plasmin; assay type: biochemical; settings: plasmin (2 nM)
Protocol: (§1) Serine protease specificity—The selectivity profile of anticoagulant proteins and their complex was examined against 12 serine proteases—procoagulant serine proteases (FIXa, FXa, FXIa, FXIIa, plasma kallikrein and thrombin), anticoagulant serine protease (APC), fibrinolytic serine proteases (urokinase, t-PA and plasmin) and classical serine proteases (trypsin and chymotrypsin). Various concentrations of purified hemextin A/hemextin B and reconstituted hemextin AB complex were preincubated with each of the enzymes (Table 1) for a period of five minutes at a temperature of 37° C., followed by the addition of appropriate chromogenic substrate.
(§2) For studies with FXIa, kallikrein and urokinase, the appropriate substrates were determined prior to their screening against the inhibitors. For FXIa, the Vmax for the amidolytic activity corresponding to the chromogenic substrates S-2266, S-2302 and S-2366 was determined. S-2302 was the substrate with the highest Vmax and thus was used in the screening studies. Similar studies with kallikrein and urokinase were carried out with substrates S-2266, S-2302 and S-2288 for kallikrein and S-2444 and S-2484 for urokinase. In a total volume of 200 μl in the individual wells of the microtiter plate, final concentrations of FVIIa (300 nM)/S-2288, FVIIa-sTF (30 nM)/S-2288, FXa (0.75 nM)/S-2765, α-thrombin (0.66 nM)/S-2238, plasmin (2 nM)/S-2366, FIXa (3 μM)/spectrozyme®fIXa, FXIa (0.34 nM)/S-2366, FXIIa (0.4 nM)/S-2302, recombinant tissue plasminogen activator (80 nM)/S-2288, activated protein C (0.34 nM)/S-2366, urokinase/S-2444, plasma kallikrein (0.4 nM)/S-2302, trypsin (2.17 nM)/S-2222 and chymotrypsin (0.4 nM)/S-2586 were measured. The kinetic rate of substrate hydrolysis (mOD/min) was measured over 5 min.

[2] = Molecular diameter by GEMMA; assay type: physicochemical; settings: gas phase, 20 mM ammonium acetate (pH 7.4)
Protocol: (A) Gas Phase Electrophoretic Mobility Macromolecule Analyzer (GEMMA)—The molecular diameters in the gas phase were determined with GEMMA (71, 72) using a nano-differential mobility analyzer, model 3980 (TSI, St Paul, Minn., USA), and a standard CPC type 3025 (TSI, St Paul, Minn., USA). The instrument was operated in the ‘cone jet’ mode with an operating voltage between 2.5 and 3.0 kV, resulting in currents from 200 to 300 nA. Filtered ambient air at 2 l/min and a concentric sheath gas flow of filtered CO2 at 0.1/min was used to stabilize the electrospray against corona discharge. Sample solutions of hemextin A (4 ng/ml) and hemextin B (4 ng/ml) were prepared in 20 mM ammonium acetate (pH 7.4) immediately prior to the experiment. Hemextin AB complex (4.5 ng/ml) was reconstituted in the above buffer and was incubated at 37° C. for 10 min. Another three-finger protein, toxin C isolated and purified from the same venom was used as a control in the GEMMA experiments. The samples were infused into the electrospray chamber with an inlet flow rate of 100 nl/min. Twenty scans over the whole EM diameter range (0 to 25 nm) were recorded and averaged to obtain a GEMMA spectrum. No smoothing algorithm was applied for the data presentation.

[3] = system: Factor XIIa; assay: Serine protease specificity, FXIIa; assay type: biochemical; settings: FXIIa (0.4 nM)/S-2302
Chain of Factor XIIa (P00748 373-615 limits assumed): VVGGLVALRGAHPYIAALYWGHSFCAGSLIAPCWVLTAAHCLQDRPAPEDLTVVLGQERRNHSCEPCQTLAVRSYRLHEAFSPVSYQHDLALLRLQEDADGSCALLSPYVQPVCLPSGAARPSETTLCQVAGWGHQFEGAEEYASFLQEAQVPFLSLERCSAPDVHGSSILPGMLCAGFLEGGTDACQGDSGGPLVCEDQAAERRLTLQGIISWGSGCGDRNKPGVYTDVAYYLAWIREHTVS
Protocol: as §1, §2

[4] = system: Trypsin; assay: Serine protease specificity, trypsin; assay type: biochemical; settings: trypsin (2.17 nM)/S-2222
Protocol: as §1, §2

[5] = system: Chymotrypsin; assay: Serine protease specificity, chymotrypsin; assay type: biochemical; settings: chymotrypsin (0.4 nM)/S-2586
Protocol: as §1, §2

[6] = system: plasma; assay: Stypven time; assay type: biochemical; settings: human plasma, RVV
Protocol: Anticoagulant activity—The anticoagulant activities of H. haemachatus venom and its fractions was determined by four coagulation tests using a BBL fibrometer: • 1. Recalcification time: The recalcification times were determined according to the method of Langdell et al. (25). 50 mM Tris-HCl buffer (pH 7.4) (100 μl), plasma (100 μl) and various concentrations of venom or its fraction (50 μl) were preincubated for 2 min at 37° C. Clotting was initiated by the addition of 50 μl of 50 mM CaCl2. • 2. Prothrombin time: The prothrombin times were measured according to the method of Quick (26). […] Clotting was initiated by the addition of thromboplastin with calcium reagent (150 μl) which can be purchased from Sigma (St. Louis, Mo., USA). • For studying the role of electrostatic interactions, the anticoagulant activity of a specific concentration of hemextin A (4.4 μM), hemextin B (4.4 μM) and hemextin AB complex (0.11 μM) was monitored in 50 mM Tris-HCl (pH 7.4) containing various concentrations of NaCl (35 mM to 150 mM). • For studying the role of hydrophobic interactions, the anticoagulant activity of a specific concentration of hemextin A (4.4 μM), hemextin B (4.4 μM) and hemextin AB complex (0.11 μM) was monitored in 50 mM Tris-HCl (pH 7.4) containing various concentrations of glycerol (125 mM to 250 mM). • 2. […] Thrombin time: Thrombin time was determined according to the method of Jim (28). […]

[7] = system: plasma; assay: Prothrombin time; assay type: biochemical, human; settings: for anticoagulant activity, prothrombin time: human plasma, 37° C.; for anticoagulant activity in buffers of high ionic strength: 50 mM Tris-HCl (pH 7.4) with NaCl 35 mM to 150 mM
Protocol: Briefly, prothrombin times may be measured according to the method of Quick (see Quick A J. (1935) J. Biol. Chem. 109, 73-74). 100 μl of 50 mM of Tris-HCl buffer (pH 7.4), 100 μl of plasma and 50 μL of the protein under investigation are to be incubated for 2 min at 37° C. Clotting is initiated by the addition of 150 μL of thromboplastin with calcium reagent.
Anticoagulant activity—The anticoagulant activities of H. haemachatus venom and its fractions was determined by four coagulation tests using a BBL fibrometer: • 1. Recalcification time: The recalcification times were determined according to the method of Langdell et al. (25). 50 mM Tris-HCl buffer (pH 7.4) (100 μl), plasma (100 μl) and various concentrations of venom or its fraction (50 μl) were preincubated for 2 min at 37° C. Clotting was initiated by the addition of 50 μl of 50 mM CaCl2. • 2. Prothrombin time: The prothrombin times were measured according to the method of Quick (26). 100 μl of 50 mM Tris-HCl buffer (pH 7.4), 100 μl of plasma and 50 μl of venom or its fractions were preincubated for 2 min at 37° C. Clotting was initiated by the addition of thromboplastin with calcium reagent (150 μl) which can be purchased from Sigma (St. Louis, Mo., USA). • For studying the role of electrostatic interactions, the anticoagulant activity of a specific concentration of hemextin A (4.4 μM), hemextin B (4.4 μM) and hemextin AB complex (0.11 μM) was monitored in 50 mM Tris-HCl (pH 7.4) containing various concentrations of NaCl (35 mM to 150 mM). • For studying the role of hydrophobic interactions, the anticoagulant activity of a specific concentration of hemextin A (4.4 μM), hemextin B (4.4 μM) and hemextin AB complex (0.11 μM) was monitored in 50 mM Tris-HCl (pH 7.4) containing various concentrations of glycerol (125 mM to 250 mM). • 2. Stypven time: Stypven time measurements were determined according to the method of Hougie (27). Plasma (100 μl), 50 mM Tris-HCl buffer (pH 7.4) (100 μl) and RVV (0.01 μg in 100 μl) and individual proteins or the reconstituted complex (50 μl) were preincubated for 2 min at 37° C. Clotting was initiated by the addition of 50 mM CaCl2 (50 μl). • 3. Thrombin time: Thrombin time was determined according to the method of Jim (28). Individual proteins or the reconstituted complex were incubated with 100 μl of plasma and 100 μl of 50 mM Tris-HCl buffer (pH 7.4) for 2 min at 37° C. in a total volume 250 μl. Clotting was initiated by the addition of standard thrombin reagent (0.01 NIH units in 50 μl).

Chain of Plasmin (P00747 581-810 limits assumed, species assumed): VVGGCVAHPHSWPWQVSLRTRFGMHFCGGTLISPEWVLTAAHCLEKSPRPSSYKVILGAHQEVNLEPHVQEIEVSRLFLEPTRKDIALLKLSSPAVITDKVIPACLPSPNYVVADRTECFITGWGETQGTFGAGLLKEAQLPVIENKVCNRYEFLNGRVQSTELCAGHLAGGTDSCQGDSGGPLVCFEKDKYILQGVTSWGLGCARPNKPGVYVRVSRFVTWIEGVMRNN
Chain of Plasmin (P00747 97-580 limits assumed, species assumed): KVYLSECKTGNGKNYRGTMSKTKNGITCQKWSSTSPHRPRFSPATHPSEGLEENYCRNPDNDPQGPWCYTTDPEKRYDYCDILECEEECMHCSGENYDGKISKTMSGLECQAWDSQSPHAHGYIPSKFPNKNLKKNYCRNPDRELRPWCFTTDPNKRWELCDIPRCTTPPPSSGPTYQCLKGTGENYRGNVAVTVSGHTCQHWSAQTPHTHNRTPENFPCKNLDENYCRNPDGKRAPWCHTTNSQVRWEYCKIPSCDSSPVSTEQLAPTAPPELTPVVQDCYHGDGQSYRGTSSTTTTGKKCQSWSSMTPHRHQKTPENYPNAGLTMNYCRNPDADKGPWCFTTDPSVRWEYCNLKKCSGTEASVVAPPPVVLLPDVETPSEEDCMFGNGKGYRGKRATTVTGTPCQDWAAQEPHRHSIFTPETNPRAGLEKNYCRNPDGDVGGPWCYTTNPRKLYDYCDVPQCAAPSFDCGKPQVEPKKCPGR

Molecule	Observed Effect, plasmin amidolytic activity [1]	apparent molecular diameter (GEMMA) [2] [nm]	Observed Effect, Factor XIIa amidolytic activity [3]	Observed Effect, trypsin amidolytic activity [4]	Observed Effect, chymotrypsin amidolytic activity [5]	clotting time, Stypven time [6]	anticoagulant activity of hemextin A with increasing hemextin B concentrations ([7]; hemextin A constant at 4.4 μM)	anticoagulant activity, prothrombin time [7]	anticoagulant activity in buffers of high ionic strength [7]	anticoagulant activity in buffers containing glycerol ([7]; 50 mM Tris-HCl (pH 7.4) with glycerol 125 mM to 250 mM)	anticoagulant activity at 125 mM glycerol ([7]; 125 mM glycerol)	anticoagulant activity at 250 mM glycerol ([7]; 250 mM glycerol)	anticoagulant activity, prothrombin time ([7]; listed as equimolar mixture of hemextin A and B)
hemextin B (protein) LKCKNKVVPFLKCKNKVVPFLCYKMTLKKVPKIPIKRGCTDACPKSSLLVNVMCCKTDKCN	no inhibitory activity	8.82±0.42	no inhibitory activity	no inhibitory activity	no inhibitory activity	did not prolong clotting times	increases with the increasing concentrations of hemextin B until the ratio reaches 1:1	did not show any significant effect on clotting time; also recorded: did not prolong clotting times; also recorded: no anticoagulant activity					
hemextin A (protein) LKCKNKLVPFLSKTCPEGKNLCYKMTMLKMPKIPIKRGCTDACPKSSLLVKVVCCNKDKCN	no inhibitory activity	10.2±0.38	no inhibitory activity	no inhibitory activity	no inhibitory activity	did not prolong		mild anticoagulant activity	did not affect the anticoagulant activity				
hemextin AB complex: synergistic 1:1 tetrameric complex of hemextin A and hemextin B, reconstituted from equimolar proteins (protein) chain 1: LKCKNKLVPFLSKTCPEGKNLCYKMTMLKMPKIPIKRGCTDACPKSSLLVKVVCCNKDKCN chain 2: LKCKNKVVPFLKCKNKVVPFLCYKMTLKKVPKIPIKRGCTDACPKSSLLVNVMCCKTDKCN	no inhibitory activity	16.3±0.43	no inhibitory activity	no inhibitory activity	no inhibitory activity			potent anticoagulant activity	decreased with the increase in ionic strength up to 100 mM NaCl	decreased with the increase in glycerol concentration	no decrease in the anticoagulant activity	higher than that of anticoagulant effect of hemextin A alone	more potent anticoagulant activity
